Measurements reported in article PMC5345068, “A Glycyrrhetinic Acid-Modified Curcumin Supramolecular Hydrogel for liver tumor targeting therapy” (Scientific Reports, 2017).
pIC50: −log10 of the molar value. Where two headings read alike, the source gives them in different places.

How the values were obtained:
[1] = water; cited from earlier work
Description: Curcumin (Cur), a hydrophobic polyphenol compound, is derived from the rhizomes of Curcuma longa. Cur has a wide range of therapeutic properties, such as anti-inflammation[18], anti-oxidant[19], anti-mutagenic[20], and anticancer[21] with low or no intrinsic toxicity to healthy cells. […] Fig. S-6A). […] The minimum gelation ...

HepG2 cells [2] = assay: cells; conditions: Homo sapiens, HepG2, 48 h, read-out: IC50 HepG2 mean (Table S-1)
mouse NIH 3T3 cells [3] = assay: cells; conditions: NIH3T3, 48 h, read-out: IC50, mouse fibroblast 3T3 cells
[4] = critical micelle concentration (CMC); assay type: physicochemical; conditions: Fig. S-7
Description: Fig. S-7. The critical micelle concentration (CMC) of A) GA-cur and B) Nap-cur.
Fig. S-8. The LC-MS traces of the GA-Cur (mw=2398.78,1/ mw=1200.6) and the formed
Fig. S-9. The LC-MS traces of the Nap-Cur ([…]/ mw=1058.6) and the formed

mouse NIH 3T3 cells [5] = conditions: read-out: IC50, mouse fibroblast 3T3 cells; MTT, 48 h
3T3 cells = assay: cellular uptake, 3T3; conditions: same experiment as HepG2: 25 μM, 4 h; Fig. S-15
Procedure: (§1) After being incubated for 24 h in 6-well plates at a density of 2.5 × 10^5 cells per-well, HepG2 cells were treated with 2 mL growth medium containing 25 μM of Cur, GA-Cur, Nap-Cur, or GA + GA-Cur, respectively. In GA + GA-Cur group, 50 μM of GA was used to pre-treat cells for 2 hours. HepG2 cells were then rinsed for three times with PBS following with a treatment with 25 μM of GA-Cur for another 4 hours. After 4 hours’ incubation, cells were washed for three times with PBS to remove excess compounds and 500 μL of DMSO was added to each well to dissolve compounds in cells. The solution were collected after being treated with sonication for 15 min. The amount of compounds in the cells was determined by a microplate reader excitated at 488 nm. The same experiments were performed with 3T3 cells.

HepG2 cells [6] = conditions: 48 h
HepG2 cells [7] = assay: cellular uptake, HepG2; conditions: 25 μM, 4 h, 6-well plates, 2.5 × 10^5 cells per well, DMSO lysis, microplate reader excitation 488 nm
Procedure: as §1

[8] = solubility of pro-gelators in PBS
Procedure: (§2) We therefore tested the gelation ability of the obtained two compounds. […] We then used a rheometer to characterize the resulting hydrogels obtained at 2 h time point. […] We then investigated the fluorescence spectra of the precursors (GA-cur and Nap-cur) and the hydrogels (GA-gel and Nap-gel).
(§3) 3 mg of GA-Cur or Nap-Cur was dissolved in 0.25 mL phosphate buffer saline (PBS) buffer solution (pH = 7.4, adjusted by 1.5 equiv. of Na2CO3). 4equiv. of glutathione (GSH) in 0.05 mL of PBS buffer (pH = 7.4, adjusted by 3.6equiv. of Na2CO3) was added to the above solution.

[9] = gelation test with GSH and hydrogel stability; assay type: physicochemical; conditions: PBS pH 7.4, disulfide reduction by GSH
Procedure: as §2, §3

| pIC50 (HepG2 cells [2]) | pIC50 (HepG2 cells [6]) | Structure (SMILES) | aqueous solubility [1] | pIC50 (mouse NIH 3T3 cells [3]) | critical micelle concentration (CMC) [4] | pIC50 (mouse NIH 3T3 cells [5]) | intra-cellular concentration of Cur, 3T3 (3T3 cells) | pIC50 (HepG2 cells [6]; read-out: IC50 against HepG2, MTT) | intra-cellular concentration of Cur, HepG2 (HepG2 cells [7]) | well solubilized in phosphate buffer saline at a concentration of ([8]; PBS pH = 7.4, 10 mg/mL = 1 wt%, optical image) | minimum gelation concentration [9] | well solubilized in phosphate buffer saline at a concentration of [8] |
| --- | --- | --- | --- | --- | --- | --- | --- | --- | --- | --- | --- | --- |
| 4.58 | – | COc1cc(/C=C/C(=O)CC(=O)/C=C/c2ccc(O)c(OC)c2)ccc1O [Cur, Curcumin] | ≈ 11 ng/ml | 4.55 | – | – | – | – | – | – | – | – |
| – | – | COc1cc(/C=C/C(=O)CC(=O)/C=C/c2ccc(OC(=O)CCCC(=O)NCCCC[C@H](NC(=O)[C@H](Cc3ccc(O)cc3)NC(=O)[C@H](Cc3ccccc3)NC(=O)[C@H](Cc3ccccc3)NC(=O)CNC(=O)Cc3ccc4ccccc4c3)C(=O)N[C@@H](CCC(=O)O)C(=O)NCCSSCCNC(=O)CCC(=O)N[C@@H](CCC(=O)O)C(=O)N[C@@H](CCCNC(=N)N)C(=O)NCC(=O)N[C@@H](CC(=O)O)C(=O)O)c(OC)c2)ccc1O [Nap-Cur, Nap–GFFYK(Cur)E-ss-ERGD] | – | – | ~1349 µg/mL | 4.54 | 641 ng/well | 4.53 | 670 ng/well | ≥ 10 mg/mL | – | – |
| – | 4.97 | COc1cc(/C=C/C(=O)CC(=O)/C=C/c2ccc(OC(=O)CCCC(=O)NCCCC[C@H](NC(=O)[C@H](Cc3ccc(O)cc3)NC(=O)[C@H](Cc3ccccc3)NC(=O)[C@H](Cc3ccccc3)NC(=O)CNC(=O)[C@@]3(C)CC[C@]4(C)CC[C@]5(C)C(=CC(=O)[C@@H]6[C@@]7(C)CC[C@H](O)C(C)(C)[C@@H]7CC[C@]65C)[C@@H]4C3)C(=O)N[C@@H](CCC(=O)O)C(=O)NCCSSCCNC(=O)CCC(=O)N[C@@H](CCC(=O)O)C(=O)N[C@@H](CCCNC(=N)N)C(=O)NCC(=O)N[C@@H](CC(=O)O)C(=O)O)c(OC)c2)ccc1O [GA-Cur, GA–GFFYK(Cur)E-ss-ERGD] | – | – | about 1105 μg/mL | – | – | – | – | – | about 0.75 wt% | ≥ 10 mg/mL |
